Experimental data: the Immune Epitope Database (IEDB)

What was measured:
HLA-A*23:01 [1] = assay: IEDB peptide-MHC binding, purified MHC/competitive/fluorescence; filed as Kd, often an IC50 or EC50 that approximates it; ≥ and ≤ were set here for values at or beyond the usual limits of such assays; details: source organism: Vibrio vulnificus YJ016
HLA-B*44:02 = assay: as above
HLA-A*11:01 = assay: as above
HLA-A*66:01 = assay: as above
HLA-B*27:05 = assay: as above
HLA-B*07:02 = assay: as above; details: source organism: Vibrio vulnificus YJ016
HLA-A*01:01 = assay: as above
HLA-B*14:02 = assay: as above
HLA-A*30:02 = assay: as above
HLA-B*08:01 = assay: as above
HLA-A*30:01 = assay: as above; details: source organism: Vibrio vulnificus YJ016
HLA-B*58:01 = assay: as above
HLA-B*53:01 = assay: as above
HLA-B*40:01 = assay: as above
HLA-A*29:02 = assay: IEDB peptide-MHC binding, purified MHC/direct/fluorescence; filed as Kd, often an IC50 or EC50 that approximates it; ≥ and ≤ were set here for values at or beyond the usual limits of such assays
HLA-A*02:12 = assay: as above
HLA-B*27:03 = assay: as above
HLA-B*46:01 = assay: as above
HLA-B*15:01 = assay: as above
HLA-A*02:06 = assay: as above; details: source organism: Vibrio vulnificus YJ016
HLA-A*02:19 = assay: as above
HLA-A*24:03 = assay: as above
HLA-B*18:01 = assay: as above
HLA-B*57:01 = assay: as above
HLA-B*15:17 = assay: as above
HLA-A*26:01 = assay: as above
HLA-B*39:01 = assay: as above
HLA-A*02:01 = assay: as above
HLA-A*03:01 = assay: as above
HLA-B*51:01 = assay: as above
HLA-A*02:16 = assay: as above; details: source organism: Brucella melitensis bv. 1 str. 16M
HLA-A*02:03 = assay: as above; details: source organism: Brucella melitensis bv. 1 str. 16M
HLA-A*23:01 [2] = assay: as above; details: source organism: Brucella melitensis bv. 1 str. 16M
HLA-A*02:11 = assay: as above; details: source organism: Brucella melitensis bv. 1 str. 16M
HLA-A*68:02 = assay: as above; details: source organism: Brucella melitensis bv. 1 str. 16M
[3] = source organism: Vibrio vulnificus YJ016
[4] = source organism: Brucella melitensis bv. 1 str. 16M

SVFELSNFA
Kd (HLA-A*23:01 [1]): ≥ 5 µM
Kd (HLA-B*44:02; [3]): ≥ 5 µM
Kd (HLA-A*11:01; [3]): ≥ 5 µM
Kd (HLA-A*66:01; [3]): ≥ 5 µM
Kd (HLA-B*27:05; [3]): ≥ 5 µM
Kd (HLA-B*07:02): ≥ 5 µM
Kd (HLA-A*01:01; [3]): ≥ 5 µM
Kd (HLA-B*14:02; [3]): ≥ 5 µM
Kd (HLA-A*30:02; [3]): ≥ 5 µM
Kd (HLA-B*08:01; [3]): ≥ 5 µM
Kd (HLA-A*30:01): ≥ 5 µM
Kd (HLA-B*58:01; [3]): ≥ 5 µM
Kd (HLA-B*53:01; [3]): ≥ 5 µM
Kd (HLA-B*40:01; [3]): ≥ 5 µM
Kd (HLA-A*29:02; [3]): ≥ 20 µM
Kd (HLA-A*02:12; [3]): 0.679 µM
Kd (HLA-B*27:03; [3]): ≥ 20 µM
Kd (HLA-B*46:01; [3]): ≥ 20 µM
Kd (HLA-B*15:01; [3]): ≥ 20 µM
Kd (HLA-A*02:06): 0.002 µM
Kd (HLA-A*02:19; [3]): ≥ 20 µM
Kd (HLA-A*24:03; [3]): ≥ 20 µM
Kd (HLA-B*18:01; [3]): ≥ 20 µM
Kd (HLA-B*57:01; [3]): ≥ 20 µM
Kd (HLA-B*15:17; [3]): ≥ 20 µM
Kd (HLA-A*26:01; [3]): ≥ 20 µM
Kd (HLA-B*39:01; [3]): ≥ 20 µM
Kd (HLA-A*02:01; [3]): 0.008 µM
Kd (HLA-A*03:01; [3]): ≥ 20 µM
Kd (HLA-B*51:01; [3]): ≥ 20 µM

TTRAVNMEV
Kd (HLA-B*44:02; [4]): ≥ 5 µM
Kd (HLA-A*11:01; [4]): ≥ 5 µM
Kd (HLA-A*66:01; [4]): ≥ 5 µM
Kd (HLA-B*27:05; [4]): ≥ 5 µM
Kd (HLA-A*01:01; [4]): ≥ 5 µM
Kd (HLA-B*14:02; [4]): ≥ 5 µM
Kd (HLA-A*30:02; [4]): ≥ 5 µM
Kd (HLA-B*08:01; [4]): ≥ 5 µM
Kd (HLA-B*58:01; [4]): ≥ 5 µM
Kd (HLA-B*53:01; [4]): ≥ 5 µM
Kd (HLA-B*40:01; [4]): ≥ 5 µM
Kd (HLA-A*02:16): ≥ 20 µM
Kd (HLA-A*02:03): ≥ 20 µM
Kd (HLA-A*29:02; [4]): ≥ 20 µM
Kd (HLA-A*02:12; [4]): ≥ 20 µM
Kd (HLA-A*23:01 [2]): ≥ 20 µM
Kd (HLA-B*27:03; [4]): ≥ 20 µM
Kd (HLA-B*46:01; [4]): ≥ 20 µM
Kd (HLA-B*15:01; [4]): ≥ 20 µM
Kd (HLA-A*02:11): ≥ 20 µM
Kd (HLA-A*02:19; [4]): ≥ 20 µM
Kd (HLA-A*24:03; [4]): ≥ 20 µM
Kd (HLA-B*18:01; [4]): ≥ 20 µM
Kd (HLA-B*57:01; [4]): ≥ 20 µM
Kd (HLA-A*68:02): ≤ 0.001 µM
Kd (HLA-B*15:17; [4]): ≥ 20 µM
Kd (HLA-A*26:01; [4]): ≥ 20 µM
Kd (HLA-B*39:01; [4]): ≥ 20 µM
Kd (HLA-A*02:01; [4]): ≥ 20 µM
Kd (HLA-A*03:01; [4]): ≥ 20 µM
Kd (HLA-B*51:01; [4]): ≥ 20 µM
